Where a SMILES comes first, the peptide text is derived from it. Where no end group is shown, it is not given here. Side-chain parts run from the residue outwards. [ ]: non-standard residue; d: D form. The star is where a group is joined. DOTA = O=C(O)CN1CCN(CC(=O)O)CCN(CC(=O)*)CCN(CC(=O)O)CC1; Stearoyl = CCCCCCCCCCCCCCCCCC(=O)*; Palmitoyl = CCCCCCCCCCCCCCCC(=O)*; Glu = glutamate linker
Columns and labels:
CXCR4 [1] = target: T1, CXCR4 (Homo sapiens, UniProt P61073); assay: 12G5-assay IC50 (nM)
T1 construct: endogenous in cells; host or cells: SupT1 cells
Text: (§1) Table printed on a drawing sheet, Figure 2
Title: B Truncated Palmitoylated-JM#21 N-terminally modified
Head of the field: 12G5-assay IC50 (nM)
First copying reader's note: The table doubles as the legend of the antibody competition plot beside it; the plot symbols before the names are not copied.
Where the first naming reader finds the target: passage: compete with an antibody that specifically binds to the binding pocket (ECL2) of CXCR4

CXCR4 [2] = target: T1, CXCR4; assay: 12G5-assay | IC50 (nM)
Text: as §1
Title: A Truncated Palmitoylated-JM#21
Head of the field: 12G5-assay | IC50 (nM)
First copying reader's note: The table is the legend of the plot in panel A; the first column also carries the plot symbols, which are not copied.
Where the first naming reader finds the target: passage: Values determined by the competition assay represent the potency of a compound to compete with an antibody that specifically binds to the binding pocket (ECL2) of CXCR4

[3] = tested on: CXCL12 induced migration of T-cells; assay: Migration assay (transwell, Jurkat cells); format: cell-based; conditions: 30 nM peptide
[4] = s9, 8 h
Procedure: Further, the stability of peptides in human S9 liver fractions (in the presence of cofactors) was tested (FIG. 12). […] To simulate and predict hepatic metabolic clearance, peptides were added to human S9 liver fractions. […] For each peptide, three independent experiments were performed.
Stability assay in human S9 liver fractions. Pooled human liver S9 fractions were obtained from Thermo Fisher Scientific at a total protein concentration of 20 mg/ml. Fractions were stored in 25 μl aliquots at −80° C. For stability experiments, they were diluted to a final concentration of 0.5 mg/ml in Tris buffer. Cofactors (or buffer) were added immediately before start of the experiment (NADPH: 1 mM, UDPGA: 0.5 mM, GSH: 2.5 mM, PAPS: 0.05 mg/ml, Sigma Aldrich). The reaction was started by adding peptides or compounds at a concentration of 20 μM to the mixture and gentle agitation at 37° C. Determination of enzymatic stability was performed as described for plasma.

[5] = mouse, in vivo, iv
Procedure: Peptides were injected into the tail vein of mice. 4 hours post injection, mice were sacrificed and blood taken by heart punctation. Plasma was obtained by centrifugation and tested for remaining activity in antibody competition assay. As control, peptide was spiked into native plasma (ex vivo). IC50 values were determined by non-linear regression assuming 1.8 ml in vivo blood volume. Remaining activity was determined by IC50 (ex vivo)/IC50 (in vivo)×100. The tested peptides included JM #143 (SEQ ID NO.: 54), JM #144 (SEQ ID NO.: 55), JM #192 (SEQ ID NO.: 89), JM #180 (SEQ ID NO.: 77), JM #194 (SEQ ID NO.: 91), JM #235 (SEQ ID NO.: 130), JM #198 (SEQ ID NO.: 95), JM #255 (SEQ ID NO.: 150), JM #257 (SEQ ID NO.: 152) and JM #204 (SEQ ID NO.: 99). […] Shown are data from 2 individual mice measured in duplicates.
In vivo stability assay. 100 μl of a 700 μg/ml stock solution of the peptide in 0.9% NaCl was intravenously injected in the tail vein of C57BL/6NCrl (BL6) mice. 4 hours post injection, mice were killed by cervical dislocation. Mouse plasma was obtained by heart punctation. Blood was 19:1 diluted with 0.16 M NaEDTA and centrifuged at 2000×g for 20 min at 4° C. to obtain plasma. Plasma was stored at −80° C. till remaining peptide activity in the plasma was determined by 12G5 antibody competition assay.

[6] = mouse, in vivo, iv; remark: listed apart in the source
Text: To do so, the labeled conjugate was intravenously injected into the tail vein of immunodeficient mice, followed by localization and quantification of radioactivity within the body using positron emission tomography (PET).

[7] = Small animal SPECT/CT and PET/CT imaging (total body distribution); format: in vivo, Balb/c mice; conditions: ^68Ga-labeled, tail vein, 1 h p.i.
Procedure: SPECT/CT: The total body distribution of [^177Lu]Lu-Pentixather was compared to [^177Lu]Lu-DOTA-K-JM #173 and [^177Lu]Lu-DOTA-K-JM #235. Healthy Balb/c mice were injected into the tail vein with 15-20 MBq ([…]) of ^177Lu-labeled complexes and SPECT/CT images was acquired 4 h post injection (p.i.). For acquiring the images, mice were euthanized by CO2 inhalation after 4 hours, measured in a suitable dose calibrator and imaged supine, head first, using a SPECT/CT system dedicated to imaging small animals (NanoSPECT/CTTM Bioscan Inc.). The images were reconstructed using proprietary HiSPECT iterative reconstruction and fused with CT images using proprietary InVivoScope (Bioscan) software.
PET/CT: PET/CT imaging was performed to determine and compare the total body distribution of [^68Ga]Ga-Pentixather with [^68Ga]Ga-DOTA-K-JM #173. Healthy Balb/c mice were injected into the tail vein with 5-6 MBq ([…]) of ^68Ga-labeled complexes and PET/CT images were acquired 1 h p.i. For acquiring the images, mice were euthanized by CO2 inhalation after 1 h, measured in a suitable dose calibrator and imaged supine, head first, using a PET/CT system dedicated to imaging small animals (Molecubes). The images were reconstructed using the Molecubes software and fused with CT images using Vivo Quant. […]

[8] = target: T2, CXC chemokine receptor type 4 (CXCR4) (human, UniProt P61073 1-352); assay: cell-based or functional assay
[9] = target: T3, CXC chemokine receptor type 4 (CXCR4) (human, UniProt P61073 1-352); assay: 12G5 antibody competition
T3 chain: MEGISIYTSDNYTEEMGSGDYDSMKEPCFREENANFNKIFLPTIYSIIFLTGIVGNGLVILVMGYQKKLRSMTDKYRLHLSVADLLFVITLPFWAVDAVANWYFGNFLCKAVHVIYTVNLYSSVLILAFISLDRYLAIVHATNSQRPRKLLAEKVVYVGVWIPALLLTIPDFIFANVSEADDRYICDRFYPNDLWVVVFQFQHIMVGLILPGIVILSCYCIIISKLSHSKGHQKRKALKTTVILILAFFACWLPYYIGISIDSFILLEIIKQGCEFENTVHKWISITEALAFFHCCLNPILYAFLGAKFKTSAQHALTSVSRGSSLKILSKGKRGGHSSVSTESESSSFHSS

[10] = target: T3, CXC chemokine receptor type 4 (CXCR4); assay: 12G5 antibody competition
[11] = target: T3, CXC chemokine receptor type 4 (CXCR4); assay: competition
[12] = target: T2, CXC chemokine receptor type 4 (CXCR4); assay: 12G5-APC antibody competition on SupT1 cells, flow cytometry
Procedure: To the right of the diagrams, an assignment of the curves to the tested peptides is explained. […] Three independent experiments were carried out for each peptide in each assay. The error bars refer to the standard deviation.
Antibody competition assay. Competition of compounds with antibody binding was performed on SupT1 cells. For that cells were washed in PBS containing 1% FCS and 50,000 cells were then seeded per well in a 96 V-well plate. Buffer was removed and plates were precooled at 4° C. […] The antibody was used at a concentration closed to its determined Kd. 15 μl compounds were then added to the cells and 15 μl antibody immediately afterwards. Plates were incubated at 4° C. in the dark for 2 hours. Afterwards cells were washed twice with PBS containing 1% FCS and fixed with 2% PFA. Antibody binding was analyzed by flow cytometry (FACS CytoFLEX; Beckman Coulter®).

[13] = target: T3, CXC chemokine receptor type 4 (CXCR4); assay: competition
[14] = target: T3, CXC chemokine receptor type 4 (CXCR4); assay: competition
[15] = target: T2, CXC chemokine receptor type 4 (CXCR4); assay: antibody competition assay (FIG. 5)
[16] = target: T4, CXC chemokine receptor type 4 (CXCR4) (human), P61073; assay: cell-based or functional assay
T4 chain: T3 chain

[17] = target: T4, CXC chemokine receptor type 4 (CXCR4) …; assay: 12G5-APC antibody competition on SupT1 cells, flow cytometry
[18] = target: T4, CXC chemokine receptor type 4 (CXCR4) …; assay: competition; conditions: chains peptide; modification not given

CC(C)C[C@H](NC(=O)[C@@H](NC(=O)[C@@H]1CCCN1C(=O)[C@@H](NC(=O)[C@H](CO)NC(=O)[C@@H](NC(=O)[C@H](CCC(N)=O)NC(=O)[C@@H]1CCCN1C(=O)[C@@H](NC(=O)[C@H](CCCCN)NC(=O)[C@H](CCCCN)NC(=O)[C@@H](NC(=O)[C@H](Cc1ccc(O)cc1)NC(=O)[C@H](CCCNC(=N)N)NC(=O)[C@@H](NC(=O)[C@@H](N)CC(C)C)C(C)C)[C@@H](C)O)C(C)C)C(C)C)[C@@H](C)O)[C@@H](C)O)C(=O)O [EPIX4] (H-LVRYTKKVPQVSTPTL-OH; N-terminus and C-terminus assumed)
IC50 (CXCR4 [1]): 1460 nM
IC50 (CXCR4 [2]): 1780 nM

ILRWSRK(Glu-Ste)-NH2 (ILRWSRK([Glu-Stearoyl])-NH2) [JM #255]
inhibition of cell migration [3]: almost complete inhibition of cell migration
remaining activity in human S9 liver fractions after 8 hours [4]: more rapidly degraded compared to their N-terminally modified variants

ILRWSRK(Glu-Ste)LPCVS (ILRWSRK([Glu-Stearoyl])LPCVS) [JM #198]
remaining activity in plasma in vivo 4 hours post injection ([5]; 4 h): remained completely active
remaining activity in plasma in vivo 8 hours post injection ([5]; 8 h): 33%
remaining activity in plasma in vivo after 24 hours ([5]; 24 h): completely eliminated
remaining activity in human S9 liver fractions after 8 hours [4]: more stable than its palmitoylated counterpart JM #143

C-deferoxamine linked JM #122: JM #122 with deferoxamine conjugated via an additional C-terminal cysteine as (succinimido-propionyl-desferrioxamine) acetate (ILRWSRKLPSVS-{C(succinimido-propionyl-desferrioxamine)}; also: acetate salt)
biodistribution by PET [6]: rapid (5 min post injection) absorption of the peptide by the kidneys and subsequent release into the bladder

CC[C@@H](C)[C@@H](N)C(=O)N[C@@H](CC(C)C)C(=O)N[C@@H](CCCNC(=N)N)C(=O)N[C@@H](Cc1c[nH]c2ccccc12)C(=O)N[C@@H](CO)C(=O)N[C@@H](CCCNC(=N)N)C(=O)N[C@@H](CCCCN)C(=O)N[C@@H](CCCCNC(=O)CN1CCN(CC(=O)O)CCN(CC(=O)O)CCN(CC(=O)O)CC1)C(N)=O [[^68Ga]Ga-DOTA-K-JM#173] [metal not drawn] (H-[dI]LRWSRKK(DOTA)-NH2)
total body distribution, PET/CT [7]: no specific uptake in any organ in vivo

ILRWSRKLP-NH2 [JM#114]
IC50, HIV inhibition assay [8]: > 150 nM
IC50 [9]: 232 nM
IC50 [10]: 268 nM

IVRWSKKVPCVS [WSC02]
IC50 [11]: 413 nM
IC50 [12]: 350 nM
IC50, X4-HIV-1 inhibition assay [8]: 310 nM
IC50 [13]: 254 nM
IC50 [14]: 274 nM

ILRWSRKLK([Glu-Palmitoyl])-NH2 [JM#193]
IC50 [10]: 3 nM

ILRWSRKK-NH2 (not fully specified (residue 8)) [JM#191]
IC50 [12]: 1 nM
fold more effective binding than EPI-X4 [12]: > 2000 fold
fold more effective than WSC02 [12]: ~300 fold
IC50 [10]: 3 nM

B1: JM#206 (peptide)
peptide: ILRWSRKLPCVSK(DOTA)
notes: JM#21 with DOTA; also called DOTA-K-JM#21
IC50 [11]: 206 nM
binding result [15]: binds

B2: JM#207 (peptide)
peptide: ILRWSRKLPSVSK(DOTA)
notes: JM#122 with DOTA; also called DOTA-K-JM#122
IC50 [11]: 207 nM
binding result [15]: binds

LVRYTKKVPQVSTPTL [EPI-X4]
IC50, X4-HIV-1 inhibition assay [16]: 8630 nM
reduction of AKT phosphorylation at 10 µM [16]: 40%
IC50 [17]: 2500 nM
IC50 [18]: 2140 nM
